Test results from patent publication US6770458 (VANDERBILT UNIVERSITY, dated 2004).

Biological target: T1, SNF1 fused to the GAL4 DNA-binding domain (pAS2) (UniProt P04386 1-147; P06782 1-633, limits assumed)
T1 construct: Unrelated control protein in the yeast two-hybrid system
Assay: yeast two-hybrid, β-galactosidase
Method: Cloning of STRAP. Northern blot and Southern blot analysis—Y190 containing pAS2-R4C was transformed with a pACT-mouse embryonic cDNA library, and transformants were subjected to selection for histidine prototrophy on SC-his, -trp, -leu plates containing 25 mM 3-aminotriazole (as described in Harper at al., *Cell* 75: 805–816 (1993) and Durfee et al., *Genes Dev.* 7:555–569 (1993)) and rare surviving colonies were then screened for β-galactosidase activity using a colony filter lift assay. Resulting clones, after second screening, were mated with Y187 containing the unrelated proteins p53, lamin, SNF1 and CDK2 fused to the GAL4 DNA-binding domain and tested for β-galactosidase activity. Positive clones were recovered from yeast and retransformed into Y190 with one of several unrelated molecules including lamin, SNF1, p53 or CDK2 in pAS2, for further testing of the specific interaction.
A color photograph was prepared showing STRAP or FKBP12.6 in pACT transformed into yeast strain Y190 containing R4C or one of several unrelated proteins including lamin. SNF1, p53 or CDK2 in pAS2. Transformants were tested for β-galactosidase activity by colony filter lift assay. A blue color indicated a positive interaction.

B1: STRAP (Serine-Threonine Kinase Receptors Associated Protein) in pACT (other)
chain: MAMRQTPLTCSGHTRPVVDLAFSGITPYGYFLISACKDGKPMLRQGDTGDWIGTFLGHKGAVWGATLNKDATKAATAAADFTAKVWDAVSGDELMTLAHKHIVKTVDFTQDSNYLLTGGQDKLLRIYDLNKPEAEPKEISGHTSGIKKALWCSDDKQILSADDKTVRLWDHATMTEVKSLNFNMSVSSMEYIPEGEILVITYGRSIAFHSAVSLEPIKSFEAPATINSASLHPEKEFLVAGGEDFKLYKYDYNSGEELESYKGHFGPIHCVRFSPDGELYASGSEDGTLRLWQTVVGKTYGLWKCVLPEEDSGELAKPKIGFPETAEEELAEEIASENSDSIYSSTPEVKA
notes: Yeast two-hybrid prey from a pACT mouse embryonic cDNA library (1.6 kb cDNA); also called STRAP clone; not shown: fusion partner encoded by the pACT library vector
B1: no binding.
